B1: Zinc finger CCCH domain-containing protein 7B (Homo sapiens), Q9UGR2 (parent)
chain: MERQKRKADIEKGLQFIQSTLPLKQEEYEAFLLKLVQNLFAEGNDLFREKDYKQALVQYMEGLNVADYAASDQVALPRELLCKLHVNRAACYFTMGLYEKALEDSEKALGLDSESIRALFRKARALNELGRHKEAYECSSRCSLALPHDESVTQLGQELAQKLGLRVRKAYKRPQELETFSLLSNGTAAGVADQGTSNGLGSIDDIETDCYVDPRGSPALLPSTPTMPLFPHVLDLLAPLDSSRTLPSTDSLDDFSDGDVFGPELDTLLDSLSLVQGGLSGSGVPSELPQLIPVFPGGTPLLPPVVGGSIPVSSPLPPASFGLVMDPSKKLAASVLDALDPPGPTLDPLDLLPYSETRLDALDSFGSTRGSLDKPDSFMEETNSQDHRPPSGAQKPAPSPEPCMPNTALLIKNPLAATHEFKQACQLCYPKTGPRAGDYTYREGLEHKCKRDILLGRLRSSEDQTWKRIRPRPTKTSFVGSYYLCKDMINKQDCKYGDNCTFAYHQEEIDVWTEERKGTLNRDLLFDPLGGVKRGSLTIAKLLKEHQGIFTFLCEICFDSKPRIISKGTKDSPSVCSNLAAKHSFYNNKCLVHIVRSTSLKYSKIRQFQEHFQFDVCRHEVRYGCLREDSCHFAHSFIELKVWLLQQYSGMTHEDIVQESKKYWQQMEAHAGKASSSMGAPRTHGPSTFDLQMKFVCGQCWRNGQVVEPDKDLKYCSAKARHCWTKERRVLLVMSKAKRKWVSVRPLPSIRNFPQQYDLCIHAQNGRKCQYVGNCSFAHSPEERDMWTFMKENKILDMQQTYDMWLKKHNPGKPGEGTPISSREGEKQIQMPTDYADIMMGYHCWLCGKNSNSKKQWQQHIQSEKHKEKVFTSDSDASGWAFRFPMGEFRLCDRLQKGKACPDGDKCRCAHGQEELNEWLDRREVLKQKLAKARKDMLLCPRDDDFGKYNFLLQEDGDLAGATPEAPAAAATATTGE

Variants of: B1
Conditions: with nsp3_rots4 nsp3, Q00721
Chain of nsp3_rots4 nsp3, Q00721 (Q00721 whole entry): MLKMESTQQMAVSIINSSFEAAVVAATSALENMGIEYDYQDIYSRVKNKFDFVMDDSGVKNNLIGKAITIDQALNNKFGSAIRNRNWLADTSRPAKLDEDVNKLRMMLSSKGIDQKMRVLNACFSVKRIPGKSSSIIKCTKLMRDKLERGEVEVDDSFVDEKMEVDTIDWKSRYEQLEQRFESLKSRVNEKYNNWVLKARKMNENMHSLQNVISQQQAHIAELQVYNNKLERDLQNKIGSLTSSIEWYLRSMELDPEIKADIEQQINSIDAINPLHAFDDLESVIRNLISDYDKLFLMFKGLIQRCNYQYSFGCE

Variant | effect of a mutation on the interaction
L252A;D253A;D254A | decreasing interaction
